Data on one molecule can be found in patent US10398755B2, “Clusterin pharmaceuticals and treatment methods using the same” (UNIVERSITY OF SOUTHERN CALIFORNIA, priority 2009, dated 2019).

The experiment addresses T1, HA-tagged MMP-9 (Mus musculus, UniProt P41245).
T1 construct: carrying the mouse full length cDNA of Myc-tagged CLU (CLU) or HA-tagged MMP-9 (MMP-9) were transfected; expressed in transfected cells; host or cells: HEK293
In words: Immunoprecipitation assay in co-transfected HEK293 cells. It is filed as cell-based. As to the method:
(A) pcDNA 3.1 (+) expression vectors carrying the mouse full length cDNA of Myc-tagged CLU (CLU) or HA-tagged MMP-9 (MMP-9) were transfected, alone (CLU or MMP-9) or combined (CLU+MMP-9), into HEK293 cells. Using the whole cell lysates of the transfected cells, immunoprecipitation (IP) with anti-HA antibody was performed to pull down MMP-9, and then the eluted samples were subjected to immunoblotting (denaturing 4-15% gradient SDS/PAGE gel) (IB) using anti-Myc antibody to detect CLU. The bands indicated by arrows are consistent to the forms of CLU undergoing intracellular processing. in, whole cell lysate used as input; IP, immunoprecipitated sample; Unc, Uncleaved CLU protein; β, β subunit of CLU. (B) Confocal microscopy of MMP-9 and CLU in HCLE cells. Nuclei were stained with DAPI, MMP-9 was detected by rhodamine-conjuated antibody, and CLU by FITC-conjugated antibody. In control, primary antibodies were omitted. The images were taken at 400× magnification. […]
Next, we tested whether MMP-9/CLU interaction also occurs in vivo. […] We also recognized that a stronger band of ˜50 KDa, compared with the other two IP lanes, was detected in co-transfected IP lane, which might be a non-glycosylated full-length form of CLU. […]

T1 sequence (P41245 108-730): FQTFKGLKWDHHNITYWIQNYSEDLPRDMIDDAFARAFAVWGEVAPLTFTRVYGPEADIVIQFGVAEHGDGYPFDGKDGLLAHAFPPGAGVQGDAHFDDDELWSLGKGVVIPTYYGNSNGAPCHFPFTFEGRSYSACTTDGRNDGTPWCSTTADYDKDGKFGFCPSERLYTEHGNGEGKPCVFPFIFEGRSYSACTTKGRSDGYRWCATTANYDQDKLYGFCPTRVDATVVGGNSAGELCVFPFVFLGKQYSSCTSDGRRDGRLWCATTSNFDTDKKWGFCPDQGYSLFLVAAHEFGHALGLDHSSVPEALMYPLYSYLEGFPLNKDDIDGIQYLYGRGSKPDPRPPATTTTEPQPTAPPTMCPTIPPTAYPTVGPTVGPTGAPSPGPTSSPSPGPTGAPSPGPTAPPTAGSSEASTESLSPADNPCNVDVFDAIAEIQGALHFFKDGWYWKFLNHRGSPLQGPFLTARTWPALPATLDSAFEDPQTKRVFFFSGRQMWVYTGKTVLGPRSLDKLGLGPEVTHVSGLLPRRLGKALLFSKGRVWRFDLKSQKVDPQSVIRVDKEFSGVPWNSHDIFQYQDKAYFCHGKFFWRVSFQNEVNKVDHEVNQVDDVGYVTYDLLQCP

B1: CLU: secreted disulfide-linked heterodimeric glycoprotein (70-80 KD); assays used recombinant mouse CLU with C-terminal (His)6 (protein, UniProt Q06890 22-448, looked up)
Clusterin: EQEVSDNELQELSTQGSRYINKEIQNAVQGVKHIKTLIEKTNAERKSLLNSLEEAKKKKEDALEDTRDSEMKLKAFPEVCNETMMALWEECKPCLKHTCMKFYARVCRSGSGLVGQQLEEFLNQSSPFYFWMNGDRIDSLLESDRQQSQVLDAMQDSFARASGIIDTLFQDRFFARELHDPHYFSPIGFPHKRPHFLYPKSRLVRSLMSPSHYGPPSFHNMFQPFFEMIHQAQQAMDVQLHSPAFQFPDVDFLREGEDDRTVCKEIRRNSTGCLKMKGQCEKCQEILSVDCSTNNPAQANLRQELNDSLQVAERLTEQYKELLQSFQSKMLNTSSLLEQLNDQFNWVSQLANLTQGEDKYYLRVSTVTTHSSDSEVPSRVTEVVVKLFDSDPITVVLPEEVSKDNPKFMDTVAEKALQEYRRKSRAE
modifications: C-terminal His6 tag
With B1, the “co-immunoprecipitation of Myc-tagged CLU with HA-tagged MMP-9” value is recorded as “interact in vivo even before processing of the proteins”.
